The chains are these.
B1: S. cerevisiae Abp1 (full length; SH3 domain 535-592 mutated) / Hua2 (parent)
chain 1: MALEPIDYTTHSREIDAEYLKIVRGSDPDTTWLIISPNAKKEYEPESTGSSFHDFLQLFDETKVQYGLARVSPPGSDVEKIIIIGWCPDSAPLKTRASFAANFAAVANNLFKGYHVQVTARDEDDLDENELLMKISNAAGARYSIQTSSKQQGKASTPPVKKSFTPSKSPAPVSKKEPVKTPSPAPAAKISSRVNDNNDDDDWNEPELKERDFDQAPLKPNQSSYKPIGKIDLQKVIAEEKAKEDPRLVQKPTAAGSKIDPSSDIANLKNESKLKRDSEFNSFLGTTKPPSMTESSLKNDDDKVIKGFRNEKSPAQLWAERKAKQNSGNAETKAEAPKPEVPEDEPEGEPDVKDLKSKFEGLAASEKEEEEMENKFAPPPKKSEPTIISPKPFSKPQEPVKAEEAEQPKTDYKKIGNPLPGMHIEADNEEEPEENDDDWDDDEDEAAQPPLPSRNVASGAPVQKEEPEQEEIAPSLPSRNSIPAPKQEEAPEQAPEEEIEEEAEEAAPQLPSRSSAAPPPPPRRATPEKKPKENPWATAEYDYDAAEDNELTFVENDKIINIEFVDDDWWLGELEKDGSKGLFPSNYVSLGN
chain 2: MQQTKFGKMYLDHDSVVEYSEDEIVEADRITLGYKKRLSMIENQMRHLLEDFSLDVQQIEPILADLQKYYDAFLQLLQKRNKSLQCKRSTHQPVPSPMNSQTSTNAKVNLSGKLMKFQLNSVQKFDEENILRILQNKIEFEHYFQIDKGKKQKVLLLAVYQCLNGPTRLHKVLNIEGIIHNNSIRTILGKQVSSSKWTVFLYDVKLVLLAHRQDVPNLETSKMIVRYGDLFPCALYFKDHTAY

From paper PMC7954794, “Protein context shapes the specificity of SH3 domain-mediated interactions in vivo” (Nature Communications, 2021) come the findings set out here.

In the first assay the parent is B1. Briefly: DHFR protein-fragment complementation in yeast (Abp1-DHFR F[1,2] x partner-DHFR F[3]), deep mutational scanning, second methotrexate selection vs reference. Conditions: with Hua2; S. cerevisiae, DHFR-PCA selection in liquid with methotrexate at 30 C, two 72 h selections (the score uses the second); reference = the pre-selection culture; not an affinity; scale: DMS score: mean over two replicates of log2(f_test/f_ref + 0.5)/ln 2, minus the synonymous-codon median.
Regarding chain 1 D542W, the screen value was -1.61.

On to chain 1 D542I, for which the screen value is -2.41.

Regarding chain 1 D542Y, the screen value is -1.41.

In the case of chain 1 D542L, the screen value is -1.84.

chain 1 D542V: the screen value was -1.37.

As for chain 1 P584L, the screen value is -2.52.

As for chain 1 P584R, the screen value is -2.94.

Turning to chain 1 P584A, the screen value was -2.85.

Regarding chain 1 P584H, the screen value is -2.12.

Turning to chain 1 P584T, the screen value was -2.19.

As to chain 1 P584S, the screen value was -2.56.

For chain 1 N586Y, the screen value is -2.41.

Take chain 1 N586F: the screen value is -2.5.

For the variant chain 1 N586W, the screen value is -2.53.

With chain 1 L590R, the screen value is -2.85.

On to chain 1 L590H, for which the screen value is -2.44.

chain 1 L590Q: the screen value was -2.62.

As for chain 1 L590A, the screen value is -2.75.

As for chain 1 L590W, the screen value was -1.2.

On to chain 1 L590S, for which the screen value was -2.63.

chain 1 L590E: the screen value was -2.84.

In the case of chain 1 L590Y, the screen value is -1.64.

On to chain 1 L590C, for which the screen value is -2.24.

chain 1 L590P: the screen value was -1.72.

As for chain 1 L590K, the screen value was -2.78.

Turning to chain 1 L590T, the screen value is -2.55.

Consider chain 1 E575R, for which the screen value was -1.6.

Take chain 1 E575F: the screen value was -1.16.

Turning to chain 1 E575G, the screen value is -1.41.

As to chain 1 E575N, the screen value was -1.15.

Turning to chain 1 E575P, the screen value is -1.33.

For chain 1 E575T, the screen value was -1.44.

Turning to chain 1 N561I, the screen value was -1.97.

As to chain 1 N561G, the screen value was -1.4.

For the variant chain 1 N561R, the screen value is -2.12.

As to chain 1 N561S, the screen value is -2.28.

With chain 1 N561T, the screen value is -1.97.

Take chain 1 N561M: the screen value is -2.43.

With chain 1 N561Q, the screen value is -1.98.

Take chain 1 N561A: the screen value was -2.29.

On to chain 1 N561Y, for which the screen value is -2.5.

For chain 1 N561E, the screen value is -1.17.

Turning to chain 1 N561C, the screen value was -2.22.

chain 1 E540F: the screen value is -2.97.

Turning to chain 1 L551V, the screen value was -1.51.

As for chain 1 L551Q, the screen value was -2.06.

Consider chain 1 L551R, for which the screen value was -2.52.

chain 1 L551E: the screen value is -2.9.

For the variant chain 1 L551F, the screen value is -2.93.

For the variant chain 1 L551P, the screen value was -1.38.

Regarding chain 1 L551T, the screen value is -2.85.

In the case of chain 1 E550K, the screen value is -2.04.

With chain 1 E550V, the screen value was -2.76.

As for chain 1 E550G, the screen value is -2.84.

Turning to chain 1 E550A, the screen value was -2.77.

As to chain 1 E550D, the screen value was -1.79.

Turning to chain 1 D567Y, the screen value is -1.92.

chain 1 Y587W: the screen value was -1.66.

For chain 1 Y587D, the screen value is -2.16.

For the variant chain 1 Y587N, the screen value was -1.43.

Turning to chain 1 Y587Q, the screen value was -2.81.

On to chain 1 V588I, for which the screen value is -2.59.

On to chain 1 V588E, for which the screen value is -2.04.

With chain 1 V588A, the screen value is -1.52.

Consider chain 1 V588L, for which the screen value was -2.21.

In the case of chain 1 V588T, the screen value was -2.13.

As to chain 1 V588G, the screen value is -2.23.

In the case of chain 1 V588W, the screen value was -2.8.

Take chain 1 V588F: the screen value is -2.87.

On to chain 1 V588M, for which the screen value is -1.92.

As for chain 1 V588D, the screen value is -2.95.

chain 1 N556W: the screen value was -1.22.

As to chain 1 N556I, the screen value is -2.52.

Regarding chain 1 N556V, the screen value was -2.96.

On to chain 1 N556P, for which the screen value was -2.97.

With chain 1 G578F, the screen value is -2.12.

For the variant chain 1 G578Y, the screen value was -2.41.

For the variant chain 1 G578T, the screen value was -2.3.

In the case of chain 1 G578L, the screen value is -2.28.

Take chain 1 G578V: the screen value was -2.83.

Consider chain 1 G578C, for which the screen value was -1.66.

With chain 1 G578D, the screen value is -1.53.

Turning to chain 1 G578E, the screen value was -1.21.

Consider chain 1 G572V, for which the screen value was -2.77.

For chain 1 G572W, the screen value is -2.24.

Consider chain 1 G572E, for which the screen value is -2.36.

chain 1 G572R: the screen value is -2.78.

On to chain 1 D577W, for which the screen value was -2.9.

chain 1 D577Q: the screen value was -2.41.

In the case of chain 1 D577K, the screen value is -2.12.

As for chain 1 D577Y, the screen value is -2.59.

With chain 1 D577M, the screen value was -2.7.

Take chain 1 D577L: the screen value was -2.96.

Consider chain 1 D577G, for which the screen value is -1.18.

With chain 1 D577V, the screen value was -2.26.

Take chain 1 D577H: the screen value is -2.21.

Turning to chain 1 D577E, the screen value is -1.09.

For the variant chain 1 D577N, the screen value is -2.24.

Take chain 1 D577R: the screen value is -2.77.

Take chain 1 D577A: the screen value is -1.59.

Regarding chain 1 I562W, the screen value is -2.85.

Take chain 1 I562C: the screen value was -2.84.

In the case of chain 1 I562N, the screen value was -1.85.

Take chain 1 I562M: the screen value is -1.57.

On to chain 1 I562S, for which the screen value was -2.46.

For chain 1 I562F, the screen value was -2.51.

As to chain 1 I562T, the screen value is -2.61.

For the variant chain 1 W536G, the screen value is -2.23.

For the variant chain 1 W536P, the screen value was -2.87.

As for chain 1 W536L, the screen value is -1.66.

For the variant chain 1 W536I, the screen value is -1.58.

Turning to chain 1 W536N, the screen value was -1.23.

Regarding chain 1 W536K, the screen value is -1.76.

Turning to chain 1 W536A, the screen value was -1.3.

In the case of chain 1 W536D, the screen value is -1.97.

On to chain 1 W536R, for which the screen value was -1.3.

With chain 1 F553Y, the screen value was -2.41.

With chain 1 F553V, the screen value is -1.32.

Turning to chain 1 F553C, the screen value is -2.38.

As to chain 1 F553S, the screen value was -2.83.

Turning to chain 1 V565G, the screen value was -1.37.

With chain 1 V565I, the screen value is -1.06.

chain 1 V565E: the screen value is -2.08.

Regarding chain 1 V565F, the screen value is -1.5.

As to chain 1 L574Q, the screen value was -1.79.

Consider chain 1 L574H, for which the screen value is -1.08.

Turning to chain 1 L574G, the screen value is -2.91.

As to chain 1 L574A, the screen value was -1.53.

Turning to chain 1 L574S, the screen value is -1.23.

For the variant chain 1 L574P, the screen value was -2.01.

Regarding chain 1 E547G, the screen value is -2.81.

Take chain 1 E547C: the screen value was -2.2.

In the case of chain 1 E547M, the screen value was -1.68.

With chain 1 E547I, the screen value is -2.45.

Consider chain 1 E547W, for which the screen value is -2.89.

On to chain 1 E547V, for which the screen value is -2.1.

Turning to chain 1 E547F, the screen value was -1.69.

Regarding chain 1 E547A, the screen value was -2.3.

Still in this assay, the particulars now being: with Hua2; S. cerevisiae, DHFR-PCA selection in liquid with methotrexate at 30 C, two 72 h selections (the score uses the second); reference = the pre-selection culture; not an affinity; value at the no-binding floor (a bound); scale: DMS score: mean over two replicates of log2(f_test/f_ref + 0.5)/ln 2, minus the synonymous-codon median.
Take chain 1 E540P: the screen value is -3.

With chain 1 E550T, the screen value is -3.03.

As for chain 1 E550R, the screen value was -3.

Consider chain 1 E550N, for which the screen value was under -3.06.

Regarding chain 1 E550C, the screen value is under -3.06.

As for chain 1 E550L, the screen value is under -3.06.

On to chain 1 E550P, for which the screen value was under -3.06.

With chain 1 E550W, the screen value is under -3.06.

For the variant chain 1 E550S, the screen value is under -3.06.

For chain 1 E550M, the screen value is under -3.06.

Regarding chain 1 D567L, the screen value is under -3.06.

Consider chain 1 D567F, for which the screen value was -2.99.

Take chain 1 D567W: the screen value is under -3.06.

As to chain 1 D577I, the screen value is -2.99.

For the variant chain 1 D577F, the screen value is -2.98.

In the case of chain 1 D577P, the screen value is under -3.06.

Turning to chain 1 F553H, the screen value was under -3.06.

Turning to chain 1 F553R, the screen value was under -3.06.

With chain 1 F553G, the screen value is -3.04.

Turning to chain 1 F553K, the screen value was under -3.06.

As for chain 1 F553W, the screen value was under -3.06.

For chain 1 F553P, the screen value was under -3.06.

As for chain 1 F553D, the screen value is under -3.06.

With chain 1 F553T, the screen value was -3.01.

Take chain 1 F553E: the screen value is under -3.06.

Consider chain 1 F553A, for which the screen value was -3.03.

For the variant chain 1 F553Q, the screen value is under -3.06.

With chain 1 F553N, the screen value is under -3.06.

In the case of chain 1 E547P, the screen value was under -3.06.
